What was measured:
EGF = target: T1, EGF (Homo sapiens, UniProt P01133); test: vWF binding to recombinant GFs (ELISA); details: VEGF-A121 signal as baseline
T1 construct: All GFs and chemokines were purchased in their mature forms; purchased PeproTech; host or cells: Escherichia coli
Experimental: (§1) ELISA tests were performed as previously reported1. In brief, ELISA plates (med-binding, Greiner Bio-One) were coated with 50 nM GFs at 37° C. for 2 hrs. After blocking with 2% BSA solution containing PBS-T, 1 μg/mL of plasma-derived vWF (EMD Millipore) was added. Bound vWF was detected with 1 μg/mL of rabbit anti-human vWF antibody (Sino Biological). Then, HRP conjugated goat anti-rabbit antibody (Jackson ImmunoResearch) was added. After 60 min of incubation, 50 μL TMB substrate (Sigma-Aldrich) was added. The reaction was stopped by adding 25 μL of 2N H2SO4. Subsequently, the absorbance at 450 nm was measured and subtracted the absorbance at 570 nm.

FGF-1 = target: T2, FGF-1 (Homo sapiens, UniProt P05230); test: vWF binding to recombinant GFs (ELISA); details: VEGF-A121 signal as baseline
T2 construct: All GFs and chemokines were purchased in their mature forms; purchased PeproTech; host or cells: Escherichia coli
T2 sequence (P05230 16-155 limits assumed): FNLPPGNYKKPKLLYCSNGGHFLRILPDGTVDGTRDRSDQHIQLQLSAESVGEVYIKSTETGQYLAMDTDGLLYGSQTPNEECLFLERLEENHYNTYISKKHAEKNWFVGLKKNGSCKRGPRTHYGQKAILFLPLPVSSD
Experimental: as §1

FGF-18 = target: T3, FGF-18 (Homo sapiens, UniProt O76093); test: vWF binding to recombinant GFs (ELISA); details: VEGF-A121 signal as baseline
T3 construct: All GFs and chemokines were purchased in their mature forms; purchased PeproTech; host or cells: Escherichia coli
T3 sequence (O76093 28-207): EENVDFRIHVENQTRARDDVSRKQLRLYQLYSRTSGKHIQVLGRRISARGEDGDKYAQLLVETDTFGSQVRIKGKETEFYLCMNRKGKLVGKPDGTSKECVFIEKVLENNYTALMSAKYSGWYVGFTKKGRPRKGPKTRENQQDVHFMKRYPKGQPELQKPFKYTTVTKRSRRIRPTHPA
Experimental: as §1

FGF-7 = target: T4, FGF-7 (Homo sapiens, UniProt P21781); test: vWF binding to recombinant GFs (ELISA); details: VEGF-A121 signal as baseline
T4 construct: All GFs and chemokines were purchased in their mature forms; purchased PeproTech; host or cells: Escherichia coli
T4 sequence (P21781 32-194): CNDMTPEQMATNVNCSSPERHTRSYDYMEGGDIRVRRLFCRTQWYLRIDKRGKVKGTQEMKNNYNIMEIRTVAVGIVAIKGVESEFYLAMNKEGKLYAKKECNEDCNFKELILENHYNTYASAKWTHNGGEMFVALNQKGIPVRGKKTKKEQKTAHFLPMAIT
Experimental: as §1

IGF-I = target: T5, IGF-I (Homo sapiens, UniProt P05019); test: vWF binding to recombinant GFs (ELISA); details: VEGF-A121 signal as baseline
T5 construct: All GFs and chemokines were purchased in their mature forms; purchased PeproTech; host or cells: Escherichia coli
Experimental: as §1

IGF-II = target: T6, IGF-II (Homo sapiens, UniProt P01344); test: vWF binding to recombinant GFs (ELISA); details: VEGF-A121 signal as baseline
T6 construct: All GFs and chemokines were purchased in their mature forms; purchased PeproTech; host or cells: Escherichia coli
Experimental: as §1

NT-3 = target: T7, NT-3 (Homo sapiens, UniProt P20783); test: vWF binding to recombinant GFs (ELISA); details: VEGF-A121 signal as baseline
T7 construct: All GFs and chemokines were purchased in their mature forms; purchased PeproTech; host or cells: Escherichia coli
T7 sequence (P20783 139-257): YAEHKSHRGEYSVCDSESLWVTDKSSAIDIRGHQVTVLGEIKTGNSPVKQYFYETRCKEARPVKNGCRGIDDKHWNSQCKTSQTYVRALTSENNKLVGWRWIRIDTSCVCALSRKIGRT
Experimental: as §1

PDGF-AA = target: T8, PDGF-AA (Homo sapiens, UniProt P04085); test: vWF binding to recombinant GFs (ELISA); details: VEGF-A121 signal as baseline
T8 construct: All GFs and chemokines were purchased in their mature forms; purchased PeproTech; host or cells: Escherichia coli
Experimental: as §1

PDGF-BB = target: T9, PDGF-BB (Homo sapiens, UniProt P01127); test: vWF binding to recombinant GFs (ELISA); details: VEGF-A121 signal as baseline
T9 construct: All growth factors (GFs) and chemokines were purchased in their mature forms; purchased PeproTech; host or cells: Escherichia coli
T9 sequence (P01127 82-190 limits assumed): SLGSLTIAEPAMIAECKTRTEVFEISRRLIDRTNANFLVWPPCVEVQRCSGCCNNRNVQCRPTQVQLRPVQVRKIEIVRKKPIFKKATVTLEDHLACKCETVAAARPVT
Experimental: as §1

PDGF-CC = target: T10, PDGF-CC (Homo sapiens, UniProt Q9NRA1); test: vWF binding to recombinant GFs (ELISA); details: VEGF-A121 signal as baseline
T10 construct: All GFs and chemokines were purchased in their mature forms; purchased PeproTech; host or cells: Escherichia coli
T10 sequence (Q9NRA1 235-345 limits assumed): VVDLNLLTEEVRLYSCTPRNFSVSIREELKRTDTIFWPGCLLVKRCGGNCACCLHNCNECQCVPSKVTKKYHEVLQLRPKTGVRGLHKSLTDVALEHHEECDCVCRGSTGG
Experimental: as §1

β-NGF = target: T11, β-NGF (Homo sapiens, UniProt P01138); test: vWF binding to recombinant GFs (ELISA); details: VEGF-A121 signal as baseline
T11 construct: All GFs and chemokines were purchased in their mature forms; purchased PeproTech; host or cells: Escherichia coli
T11 sequence (P01138 122-241, species assumed): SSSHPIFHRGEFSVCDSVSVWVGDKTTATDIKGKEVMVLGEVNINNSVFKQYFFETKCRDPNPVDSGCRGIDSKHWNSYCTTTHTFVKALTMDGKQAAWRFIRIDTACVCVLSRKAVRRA
Experimental: as §1

VEGF-A165 = target: T12, VEGF-A165 (Homo sapiens, UniProt P15692); test: Surface plasmon resonance, vWF against GF; format: binding; details: SPR; vWF immobilized; 1:1 Langmuir fit, single KD; read-out: dissociation constant (KD value) for VEGF-A165
T12 construct: All growth factors (GFs) and chemokines were purchased in their mature forms; purchased PeproTech; host or cells: Escherichia coli
T12 sequence (P15692 27-191 isoform P15692-4 limits assumed): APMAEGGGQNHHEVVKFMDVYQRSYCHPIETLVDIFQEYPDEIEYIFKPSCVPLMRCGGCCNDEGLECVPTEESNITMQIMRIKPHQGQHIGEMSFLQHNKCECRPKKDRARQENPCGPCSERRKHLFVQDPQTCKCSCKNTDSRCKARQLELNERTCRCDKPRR
Experimental: SPR assays were performed as described previously2. In brief, measurements were made with a Biacore X100 SPR system or Biacore 3000 SPR system (GE Healthcare). Plasma-derived vWF was immobilized via amine coupling on a C1 chip (GE Healthcare) for 2000 resonance units (RU) according to the manufacturer's instructions. Recombinant human VEGF-A165, VEGF-A121, or PDGF-BB was flowed at increasing concentrations in the running buffer at 30 μL/min. The sensor chip was regenerated with glycine at pH 2 for every cycle. Specific binding of GFs to vWF was calculated automatically using the response to a non-functionalized channel as a reference. Binding curves were fitted using BIAevalution software (GE Healthcare). vWF-VEGF-A165 binding results were fitted with Langmuir binding kinetics (1:1 binding with drifting baseline Rmax local). vWF-PDGF-BB binding results were fitted with heterogeneous ligand-parallel reaction.

human lung fibroblasts = test: Cell adhesion assay on vWF HBD coated plates; format: cell-based; details: 1 μg/mL vWF HBD coated plates
Experimental: Cell adhesion assays were performed using starved human lung fibroblasts (Lonza) in FGM-2 medium (Lonza) with or without 5 mM EDTA. Cells were plated at 3000 cells/well on 1 μg/mL vWF HBD pre-coated 96-well plates (non-tissue culture treated, Greiner Bio-one) and incubated for 30 min at 37° C. Then, the medium was removed, and wells were further washed three times with new FGM-2 medium. Cell numbers were quantified using a CyQUANT assay (Invitrogen).

T1 sequence (P01133 971-1023 limits assumed): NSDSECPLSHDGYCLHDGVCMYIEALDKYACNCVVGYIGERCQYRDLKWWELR

| Substance | vWF binding to EGF (EGF) | vWF binding to FGF-1 (FGF-1) | vWF binding to FGF-18 (FGF-18) | vWF binding to FGF-7 (FGF-7) | vWF binding to IGF-I (IGF-I) | vWF binding to IGF-II (IGF-II) | vWF binding to NT-3 (NT-3) | vWF binding to PDGF-AA (PDGF-AA) | vWF binding to PDGF-BB (PDGF-BB) | vWF binding to PDGF-CC (PDGF-CC) | vWF binding to β-NGF (β-NGF) | Kd (VEGF-A165) [nM] | fibroblast attachment with EDTA (human lung fibroblasts; 5 mM EDTA) | fibroblast attachment (human lung fibroblasts; 30 min, without EDTA) |
| --- | --- | --- | --- | --- | --- | --- | --- | --- | --- | --- | --- | --- | --- | --- |
| vWF: human plasma-derived von Willebrand factor (EMD Millipore) | did not show binding | not | bound | bound | Neither insulin-like growth factor-I (IGF-I) nor IGF-II bound | Neither insulin-like growth factor-I (IGF-I) nor IGF-II bound | relevant binding | bound | bound | bound | relevant binding | 27 |  |  |
| YIGLKDRKRPSELRRIASQVKYAC [vWF HBD] |  |  |  |  |  |  |  |  |  |  |  |  | inhibited | significantly enhanced fibroblast attachment |
